According to article doi:10.1101/2020.12.07.415216:

Tests used:
[1] = molecular target: SARS-CoV RBD homotrimer (RBD appended onto a cystine-stabilized, hyperglycosylated GCN4 trimerization tag) (SARS-CoV) (UniProt P59594); experiment: SDS-PAGE under non-reducing conditions
[2] = molecular target: WIV1-CoV RBD homotrimer (RBD appended onto a cystine-stabilized, hyperglycosylated GCN4 trimerization tag) (WIV1-CoV); experiment: SDS-PAGE under non-reducing conditions

| Substance | stoichiometry N [1] | stoichiometry N [2] |
| --- | --- | --- |
| SARS-CoV RBD homotrimer (RBD appended onto a cystine-stabilized, hyperglycosylated GCN4 trimerization tag) (from UniProt P59594) | 3 | – |
| WIV1-CoV RBD homotrimer (RBD appended onto a cystine-stabilized, hyperglycosylated GCN4 trimerization tag) | – | 3 |
